Source: patent publication US20130109581A1, “POSITIVELY CHARGED SPECIES AS BINDING REAGENTS IN THE SEPARATION OF PROTEIN AGGREGATES FROM MONOMERS” (priority 2009, published 2013)
Several values for one entry are separate records, joined by “and”; a condition that tells them apart may be missing. Identical values can stand only once.

Legend:
PrP^Sc = PrP^Sc (Mesocricetus auratus, UniProt P04273)
[1] = biological target: T1, oligomeric beta amyloid 1-42 (globulomer) (Homo sapiens, UniProt P05067); assay: Misfolded Protein Assay: capture of globulomer spiked into CSF (Example 2); type: binding; conditions: globulomer-spiked CSF vs normal CSF; reagent on Dynal M270 beads
T1 construct: beta amyloid (1-42) was monomerized with incubation in hexafluoroisopropanol
Method: To assess the ability of these reagents to capture protein aggregates, the previously described Misfolded Protein Assay or MPA (Lau et al., 2007, PNAS, 104: 11551) was used (FIG. 3). In this assay, the capture reagent of interest is attached to beads which are incubated with a sample of interest containing a mixture of normal monomeric and aggregated proteins to allow for capture and then washed to remove unbound material. After this enrichment step, an elution buffer is used to dissociate the captured material from the beads as well as to denature any aggregates. The eluted material is then applied to a sandwich ELISA that is specific for the protein of interest. Strong aggregate-binding reagents acting as effective capture reagents show a high signal from the sample containing a mixture of monomers and aggregates, but not from the control sample, which contains only physiologic levels of monomeric protein.
Beads displaying carboxylic acids were treated with EDC and BMPH to create maleimide-displaying beads, to which thiolated peptides (or other thiolated organic molecules) were added through a Michael addition reaction. Dynal M270 magnetized beads (30 mg/mL bead) displaying carboxylic acids were vortexed and placed into a 15 ml falcon tube. The tube was placed into a magnet, and the supernatant removed. The beads were washed 2 times with 0.1 M MES buffer, pH 5, and then the washing buffer was removed. The coupling solution (33 mM BMPH, 130 mM EDC in MES buffer) was added, and the tube was rocked for 30 minutes at room temperature. After washing in 1×MES, 1× Tris, pH 7.5, the beads were quenched with Tris buffer (50 mM Tris buffer, pH 7.5) for 15 minutes. The beads were then washed 2 times in phosphate buffer and added to 5 mM thiolated ligand in degassed phosphate. The beads were rotated for 21 hours, then washed in 0.1 M phosphate buffer, pH 7, 1×PBS, and stored.
To prepare the globulomer, beta amyloid (1-42) was monomerized with incubation in hexafluoroisopropanol. The hexafluoroisopropanol was removed by vacuum centrifugation. DMSO, PBS, and 2% SDS were then added to the sample. The sample was vortexed and sonicated and then incubated at 37° C. After 6 hours, the sample was diluted with water, vortexed, and incubated at 37° C. for an additional 19 hours. The sample was ultracentrifuged at 135000×g for 1 hour at 4° C., and the supernatant retained. The globulomers were spiked into CSF for the assay.
Aliquots of beads conjugated to various reagents were added to wells of a 96-well plate. Globulomer-spiked CSF in a Tris buffer was added to each well, and the plates were incubated for 1 hour at 37° C. with shaking. For the negative control, normal CSF was used, which is considered to contain only monomers of beta amyloid. The beads were washed with TBST wash buffer, and bound materials were eluted with a denaturing solution (typically 0.1-0.15 N NaOH). A reconditioning buffer was added to the eluate prior to beta amyloid detection via a beta amyloid (1-42) specific sandwich ELISA.
In order to determine the amount of ligand loading, amine quanitation was used. Aliquots of beads were placed in a magnet, and the supernatant removed. 80% phenol in ethanol, 0.2 mM KCN in pyridine/water, and 6% ninhydrin in ethanol was added to each tube. The aliquots were vortexed and heated for 7 minutes at 100° C. After cooling to room temperature, 60% ethanol was added. The tubes were placed in a magnet, and the absorbance of the supernatant at 570 nm was determined. The loading of the beads was determined according to Beer's law, using the extinction coefficient of 15000 M-1 cm-1.
Beads (3 ul or 15 ul) were added to samples containing 0.5 ng/mL globulomer spiked into CSF. […] For PSR1, this limit was ˜5 nmol ligand/mg bead for binding preferentially to globulomer. […]

Aβ(1-42) aggregates = biological target: T2, Aβ(1-42) aggregates (Homo sapiens, UniProt P05067); type: binding
T2 construct: For Aβ(1-42), 10 nL of 10% brain homogenate was added to each well; from tissue; host or cells: Alzheimer's disease patient brain homogenate

tau aggregates = type: binding, human
Abeta 1-42 globulomer [2] = biological target: T3, Abeta 1-42 globulomer (Homo sapiens, UniProt P05067); assay: Globulomer capture assay in CSF (Example 6); type: binding; conditions: 4 ng/mL globulomer spiked; FIG. 29
T3 construct: beta amyloid (1-42) was monomerized with incubation in hexafluoroisopropanol

Abeta 1-42 globulomer [3] = biological target: T3, Abeta 1-42 globulomer; assay: Globulomer capture assay in CSF (Example 6); type: binding
Method: (§1) A series of new potential aggregate-specific binding reagents were designed as shown below and conjugated onto magnetic Dynal M270 beads as described in Example 2. Typically 7-12 nmol of ligand (each candidate aggregate-specific binding reagent) was coated onto 1 mg of beads.
(§2) Aliquots of the beads (typically 3 ul) were added to wells of a 96 well plate, followed by sample (with or without Abeta 1-42 globulomer (an Abeta42 oligomer model) spiked in 80:20 CSF:TBSTT, typically 125 ul). The plate was sealed and incubated for 1 hour at 37° C. with shaking. The plate was washed with aqueous solutions of detergent (typically polyethylene glycol sorbitan monolaurate and n-tetradecyl-N,N-dimethyl-3-ammonio-1-propanesulfonate) to remove ubound material and the residual buffer removed. A denaturing solution (typically 0.1-0.15 N NaOH) was added to each well and the plate heated to 80° C. for 30 min with shaking. After cooling the plate to room temperature, a neutralizing buffer (typically 0.12-0.18 M NaH2PO3 in 0.4% TWEEN20,) was added and the plate was shaken briefly at room temperature. The bead eluate was analyzed using either an Aβ42-specific ELISA or the MSD® 96-Well MULTI-SPOT® Human/Rodent [4G8] Abeta Triplex Ultra-Sensitive Assay from Meso Scale Discovery (Gaithersburg, Md.). For the Aβ42-specific assay, the samples were eluted from the beads and a detection antibody (4G8 HRP) was added to a plate bearing the Aβ42-specific antibody 12F4. The plate was incubated for 1 hour, washed, the substrate was added (SuperSignal West Femto Maximum Sensitivity Substrate from Thermo Fisher, Rockville, Md.), and the luminescence was measured. The MSD plate assay was performed in a similar fashion, according to the manufacturer's protocol.
(§3) In this experiment the preferred number of charges within a given scaffold was identified. An Ala/Lys peptide framework was utilized, where the inclusion of each Lys residue increases the peptides' net charge by +1. Six hexapeptides with increasing charge (+1→+6), AAAKAA, AAKKAA, AAKKKA, AKKKKA, AKKKKK, and KKKKKK, were prepared and conjugated on the beads. The ability of these beads to capture Abeta 1-42 globulomer spiked at 1 ng/mL into CSF was tested, and the result is shown in FIG. 25. The globulomer capture level (“42 1 ng/ml” or the closed bars) was compared to the background signal of Abeta 1-42 detected in the unspiked CSF (“42 0 ng/ml”) and the background signal of Abeta 1-40 detected in unspiked CSF (“40 0 ng/ml”) or CSF spiked with AB42 oligomers “40 1 ng/ml”. The charge density, as conjugated to the magnetic beads, of each reagent evaluated in this experiment is shown below in Table 8.

[4] = biological target: T4, Aβ40 aggregates in AD CSF (Homo sapiens, UniProt P05067); assay: Discrimination between AD and normal CSF; type: binding; conditions: AD CSF; detergent wash; data not shown
T4 construct: from tissue; host or cells: pooled cerebrospinal fluid (normal or AD)
Method: The Ab42 aggregates were prepared as previously described: fibrils were prepared per Stine et al (JBC 2003, 278, p11612), globulomers were prepared per Barghorn et al (J Neurology 2005 95 p834), ADDLs were prepared per Lambert et al (PNAS 1998, 95 p6448), and ASPDs were prepared per Noguchi et al (JBC 2009 284 p32895). Normal CSF was pooled from clinically characterized non-demented patient CSF samples. AD CSF was pooled from clinically-characterized AD patient samples. Alzheimer's Disease Brain Homogenate (ADBH) was prepared by sonication of clinically diagnosed AD patient brain samples in 0.2M.sucrose (1:10 w/v).
For the capture assay (Misfolded Protein Assay), aliquots of the beads (30 ul) were added to wells of a 96 well plate, followed by 125 ul of sample in 80:20 CSF:TBSTT. The plate was sealed and incubated for 1 h at 37 C with shaking. The plate was washed with TBST and the residual buffer removed. A denaturing solution (0.1 N NaOH) was added to each well and the plate heated to 80 C. for 30 min with shaking. After cooling the plate to RT, a neutralizing buffer (0.12 M NaH2PO3-0.4% TW20,) was added and the plate shaken briefly at RT. The assay was analyzed using the triplex Mesoscale Discovery ELISA kit for Aβ. The Aβ in the samples eluted from the beads were detected per the manufacturer's protocol.
For discriminating between AD and normal CSF, pooled normal CSF or pooled Alzheimer's Disease patient CSF, were assayed per the protocol described above.

normal CSF Aβ42 = biological target: T5, normal CSF Aβ42 (Homo sapiens, UniProt P05067); assay: NMPA with detergent washing: background from unspiked CSF, Abeta42; type: binding; conditions: CSF; PSR1 beads treated with detergent post capture
T5 construct: reduced the detection of normal CSF Aβ42 to the background levels; from tissue; host or cells: pooled normal cerebrospinal fluid
Method: Second, two neutral detergents, polyethylene glycol sorbitan monolaurate (available as TWEEN 20 from Sigma-Aldrich, St. Louis, Mo.) and n-tetradecyl-N,N-dimethyl-3-ammonio-1-propanesulfonate (available as ZWITTERGENT 3-14 from EMI) Chemicals, Gibbstown, N.J.) were used to treat the globulomer-spiked CSF samples that had been contacted with PSR1 beads. For each assay, a mixture of 30 μl of PSR1 beads (coated at about 7-12 nmol PSR1 ligand/mg DYNAL beads, which were used in this example and in the following examples unless otherwise stated) and 70 μl of 1×TBSTT was immediately pipetted into each well on the pulldown plate. The liquid was removed on a magnetic separator. Fifty micro liters of 5×TBSTT was added to each well. The beads were suspended by briefly shaking at 750 rpm. Next […] of TBSTT or CSF sample without globulomer was added to each well. The pulldown plate was sealed and incubated at 37° C. for 1 hour with shaking at 500 rpm. After incubation, the beads were washed 8 times with TBST on the plate washer. After the plate wash, residual TBST buffer was removed from the beads on the magnetic separator. The beads were then incubated with 100 μl of either TBS, 1% Tween20 or 1% Zwittergent 3-14 for 30 minutes at room temperature at 750 rpm, (followed by an additional 8 washes with TBST on the plate washer. After removing residual TBST on the magnetic separator, 20 μl of denaturing solution, typically 0.1-0.15 N NaOH, was added to the beads. The plate was covered with an aluminum foil plate sealer and incubated at 80° C. for 30 minutes with shaking at 750 rpm. After incubation, the plate was cooled to room temperature and twenty micro liters of neutralizing solution, typically 0.12-0.18 M NaH2PO4+0.4% Tween20) was added into each well and the plate was incubated at room temperature for 5 minutes with shaking at 750 rpm. […] MSD Abeta Triplex Assay was preformed according to the manufacturer's instructions.
A summary of the assay results and calculated signal/noise is shown below in Table 17.

Abeta 42 globulomer = Abeta 42 globulomer (Homo sapiens, UniProt P05067); assay: NMPA with detergent washing after PSR1 pulldown: globulomer detection; type: binding
Abeta 1-40 monomer = biological target: T6, Abeta 1-40 monomer (Homo sapiens, UniProt P05067); assay: Globulomer capture assay in CSF (Example 6): Abeta 1-40 noise; type: binding; conditions: Abeta 1-40 signal (noise), CSF samples
T6 construct: Abeta 1-40 monomer capture level; from tissue; host or cells: cerebrospinal fluid (matrix of the assay)
Method: as §1, §2, §3

Sequence of PrP^Sc (P04273 23-231 limits assumed): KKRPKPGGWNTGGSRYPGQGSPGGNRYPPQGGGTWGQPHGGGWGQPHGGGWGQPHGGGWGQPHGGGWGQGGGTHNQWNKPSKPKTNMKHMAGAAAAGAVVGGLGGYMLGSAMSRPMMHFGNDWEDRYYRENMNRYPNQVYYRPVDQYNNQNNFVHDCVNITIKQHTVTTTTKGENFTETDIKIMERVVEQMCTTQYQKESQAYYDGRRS

Q: For Nab-Nab-Nab-Nab-Nab-Nab [++++++], which “PrP^Sc capture signal” value (PrP^Sc) is on record?
A: Signal was observed with the 100 or 300 ng/mL spike levels

Q: How did the “capture of oligomers (relative light units from the Abeta ELISA)” value [1] turn out when KKKWKW was run?
A: increased capture efficiency relative to the corresponding peptides with aliphatic hydrophobic residues or no hydrophobic residues

Q: Nab-Nab-Nab-Nab-Nab-Nab-Nab [+++++++] was tested. Which “limit of detection for Aβ(1-42) capture” value (Aβ(1-42) aggregates) did it give?
A: 1.6 mL/assay and 2.5 mL/assay

Q: What about the “total Tau signal, AD vs normal brain homogenate” value (tau aggregates) of the same substance?
A: higher signals in the AD samples relative to the normal brain homogenates

Q: Which results are given for FKFKKK?
A: globulomer capture (Abeta 1-42 globulomer [2]): improved globulomer capture relative to nonaromatic residues; globulomer capture (Abeta 1-42 globulomer [3]; Abeta42 globulomer spiked into CSF, reagents on beads): captured globulomers specifically

Q: “n-Hexadecyl-N,N-dimethyl-3-ammonio-1-propanesulfonate [ZW3-16]” was tested. Which “Abeta 40 aggregates capture S/N” value [4] did it give?
A: improved Abeta 40 aggregates capture S/N even more significantly in AD CSF

Q: And the “Abeta 42 RLU, 0 ng/mL Abeta 42 globulomer, Average” value (normal CSF Aβ42)?
A: 67.0 RLU

Q: And the “signal/noise of globulomer detection” value (Abeta 42 globulomer)?
A: improved the signal/noise ratio for Abeta 42 globulomer detection more significantly

Q: What about the “S/N Abeta 42 globulomer-spiked/unspiked” value (Abeta 42 globulomer; 0.5 ng/mL vs 0 ng/mL globulomer) of the same substance?
A: 10.9

Q: And the “S/N Abeta 42 globulomer-spiked/Abeta 40” value (Abeta 42 globulomer; Abeta 42 RLU at 0.5 ng/mL over average Abeta 40 RLU)?
A: 3.7

Q: And the “Abeta 42 RLU, 0.5 ng/mL Abeta 42 globulomer, Average” value (Abeta 42 globulomer; CSF, PSR1 beads treated with detergent post capture)?
A: 730.7 RLU

Q: For DDDDDD, which “capture of oligomers (relative light units from the Abeta ELISA)” value [1] is on record?
A: little enrichment of the oligomeric species

Q: KKKKKK was tested. Which “42:40 (signal:noise ratio)” value (Abeta 1-42 globulomer [3]; 1 ng/ml average reading, ratio of 42 to 40) did it give?
A: 3.3

Q: What about the “42, 1 ng/ml average reading” value (Abeta 1-42 globulomer [3]; Abeta 1-42 globulomer spiked at 1 ng/mL into CSF) of the same substance?
A: 658 RLUs

Q: What about the “capture of oligomers (relative light units from the Abeta ELISA)” value [1] of the same substance?
A: significant capture

Q: What about the “40, 1 ng/ml average reading” value (Abeta 1-40 monomer) of the same substance?
A: 197 RLUs

Q: With HHHHHH as the substance, how does the “capture of oligomers (relative light units from the Abeta ELISA)” value [1] read?
A: little enrichment of the oligomeric species

Q: Which globulomer capture (Abeta 1-42 globulomer [2]) does the source give for AKFKKK here?
A: improved globulomer capture relative to nonaromatic residues
